We go through 1 molecule from publication PMC9779650 (2022).

For experiment [1], the target named is T1, SARS-CoV-2 spike RBD-His (wildtype, WA1/2020) (SARS-CoV-2, UniProt P0DTC2 319-541). Briefly: BLI. In general terms: In BLI a coated tip is dipped into the sample, and binding shifts an interference pattern.
In experiment [2] the target is T1, SARS-CoV-2 spike RBD-His (wildtype, …). Briefly: BLI. The source holds these as a separate data set.

B1: P4A2 monoclonal antibody (antibody, V domains shown)
VH: QVQLQQSGAELVKPGASVKLSCKASGFTFTRYSIYWMKQRPGQGLEWIGEINPSTGDTNFNEKFKSKATLTVDKSSTTAYMQLSSLTSEDSAVYYCTRSTGYWGQGTLVTVSA
VL: DIVLTQSPASLAVSLGQRATISCRASESVEYHGTILMQWFQQKPGQPPRLLIYAASNVDSGVPARFSGSGSGTDLSLNIHPVEEDDIAMYFCQQSRKVPYTFGGGTKLEIK
B1: the dissociation constant Kd (in general, the free concentration of one partner at which half of the binding sites on the other are occupied at equilibrium, for simple one-to-one binding) in experiment [1] is below 1 pM. The off-rate (koff) (commonly the rate constant with which the complex falls apart) in experiment [2] was below 1e-07 s⁻¹.
